Source: PMC7666158

Experiments:
[1] = target: JNK1-dc20 (JNK1 with the C-terminal 20 residues truncated) (human) (UniProt P45983); test: fluorescence polarisation; competitive: 50 nM CF-evJIP with JNK1 at ~60–80% complex, titrated with unlabeled competitor; 20 mM Tris pH 8.0, 100 mM NaCl, 0.05% Brij35P, 2 mM TCEP; 384-well plates
[2] = target: CF-evJIP (carboxyfluorescein-labeled reporter docking peptide); test: fluorescence polarisation; direct titration: 50 nM CF-evJIP, JNK1 concentration increased; 20 mM Tris pH 8.0, 100 mM NaCl, 0.05% Brij35P, 2 mM TCEP; 384-well plates
[3] = target: pp-p38 (double-phosphorylated, activated p38α) (human) (UniProt Q16539); test: competition in an in vitro kinase assay; 2 nM pp-p38, 2 µM MBP-ATF2 substrate, 3-fold dilution series of peptide from 1 mM; phospho-ATF2 dot blot; Ki = IC50/(1 + S/KM), KM 17.3 µM

| Substance | Ki [3] [µM] | other results |
| --- | --- | --- |
| ATF2(19–100) Q34R/H47R (mutant construct of the FP assay of Fig. 2b) (from UniProt P15336-1 19-100) (domain or fragment) | – | fold stronger binding than the wild type [1]: 100 fold |
| JNK1-dc20 (JNK1 where the C-terminal 20 residues are truncated) (from UniProt P45983 1-364) (enzyme) | – | Kd [2]: 0.47 µM |
| MBP-c-Jun(1–78) K35E (domain or fragment) | – | fold decrease in binding against the wild type [1]: 10 fold |
| SPFENEF peptide (ATF2 83–102) S90N (from UniProt P15336-1 83-102) | 7.5 | – |
| SPFENEF peptide (ATF2 83–102) phospho-S90 | 820 | – |
| SPFENEF peptide (ATF2 83–102), WT | 33.6 | – |
